Our source for the Kd and yeast surface expression values is the FLAb antibody collection (doi:10.7554/elife.23156).

A word on the Kd: it is the constant that tells how readily two partners part at equilibrium.

Sequences and labels used below:
B1: scFv; the commonest letter at each place (parent)
chain 1: EVKLDETGGGLVQPGRPMKLSCVASGFTFSDYWMNWVRQSPEKGLEWVAQIRNKPYNYETYYSDSVKGRFTISRDDSKSSVYLQMNNLRVEDMGIYYCTGSYYGMDYWGQGTSVTVS
chain 2: DVVMTQTPLSLPVSLGDQASISCRSSQSLVHSNGNTYLRWYLQKPGQSPKVLIYKVSNRFSGVPDRFSGSGSGTDFTLKISRVEAEDLGVYFCSQSTHVPWTFGGGTKLEIK

The data set “fluorescein” covers variants of B1. As to the kind of experiment: Kd (Tite-Seq). Particulars: with fluorescein; format: scFv 4-4-20, heavy + light.
The variants in data set [1] derive from B1. As to the kind of experiment: yeast surface expression (ratio to wild type); higher = more expressed. As to conditions: format: scFv 4-4-20, heavy + light.

A value given as a limit tells only on which side of the number the result lay.

On to chain 1 EVKLDETGGGLVQPGRPMKLSCVASGFTFSCYWMNGVRQSPEKGLEWVAQIRNKPYNYETYYSDSVKGRFTISRDDSKSSVYLQMNNLRVEDMGIYYCTGSYYGMDYWGQGTSVTVS chain 2 DVVMTQTPLSLPVSLGDQASISCRSSQSLVHSNGNTYLRWYLQKPGQSPKVLIYKVSNRFSGVPDRFSGSGSGTDFTLKISRVEAEDLGVYFCSQSTHVPWTFGGGTKLEIK [chain 1 D31C W36G], for which the Kd in the data set with fluorescein was ≥ 10 µM. Also, the yeast surface expression in data set [1] is 0.738.

Consider chain 1 EVKLDETGGGLVQPGRPMKLSCVASGFTFSCYKMNWVRQSPEKGLEWVAQIRNKPYNYETYYSDSVKGRFTISRDDSKSSVYLQMNNLRVEDMGIYYCTGSYYGMDYWGQGTSVTVS chain 2 DVVMTQTPLSLPVSLGDQASISCRSSQSLVHSNGNTYLRWYLQKPGQSPKVLIYKVSNRFSGVPDRFSGSGSGTDFTLKISRVEAEDLGVYFCSQSTHVPWTFGGGTKLEIK [chain 1 D31C W33K], for which, in the data set with fluorescein, the Kd is 3.74 µM. Besides, in data set [1], the yeast surface expression was 0.675.

With chain 1 EVKLDETGGGLVQPGRPMKLSCVASGFTFSCYCMNWVRQSPEKGLEWVAQIRNKPYNYETYYSDSVKGRFTISRDDSKSSVYLQMNNLRVEDMGIYYCTGSYYGMDYWGQGTSVTVS chain 2 DVVMTQTPLSLPVSLGDQASISCRSSQSLVHSNGNTYLRWYLQKPGQSPKVLIYKVSNRFSGVPDRFSGSGSGTDFTLKISRVEAEDLGVYFCSQSTHVPWTFGGGTKLEIK [chain 1 D31C W33C], the Kd in the data set with fluorescein is ≥ 10 µM. For the same variant, in data set [1], the yeast surface expression came to 0.579.

For the variant chain 1 EVKLDETGGGLVQPGRPMKLSCVASGFTFSCYPMNWVRQSPEKGLEWVAQIRNKPYNYETYYSDSVKGRFTISRDDSKSSVYLQMNNLRVEDMGIYYCTGSYYGMDYWGQGTSVTVS chain 2 DVVMTQTPLSLPVSLGDQASISCRSSQSLVHSNGNTYLRWYLQKPGQSPKVLIYKVSNRFSGVPDRFSGSGSGTDFTLKISRVEAEDLGVYFCSQSTHVPWTFGGGTKLEIK [chain 1 D31C W33P], the Kd in the data set with fluorescein was ≥ 10 µM. In addition, in data set [1], the yeast surface expression amounted to 0.671.

Take chain 1 EVKLDETGGGLVQPGRPMKLSCVASGFTFSCYGMNWVRQSPEKGLEWVAQIRNKPYNYETYYSDSVKGRFTISRDDSKSSVYLQMNNLRVEDMGIYYCTGSYYGMDYWGQGTSVTVS chain 2 DVVMTQTPLSLPVSLGDQASISCRSSQSLVHSNGNTYLRWYLQKPGQSPKVLIYKVSNRFSGVPDRFSGSGSGTDFTLKISRVEAEDLGVYFCSQSTHVPWTFGGGTKLEIK [chain 1 D31C W33G]: in the data set with fluorescein, the Kd was ≥ 10 µM. Further, the yeast surface expression in data set [1] stood at 0.385.

On to chain 1 EVKLDETGGGLVQPGRPMKLSCVASGFTFSCYWMYWVRQSPEKGLEWVAQIRNKPYNYETYYSDSVKGRFTISRDDSKSSVYLQMNNLRVEDMGIYYCTGSYYGMDYWGQGTSVTVS chain 2 DVVMTQTPLSLPVSLGDQASISCRSSQSLVHSNGNTYLRWYLQKPGQSPKVLIYKVSNRFSGVPDRFSGSGSGTDFTLKISRVEAEDLGVYFCSQSTHVPWTFGGGTKLEIK [chain 1 D31C N35Y], for which the Kd in the data set with fluorescein was ≥ 10 µM. Besides, the yeast surface expression in data set [1] came out at 0.763.

On to chain 1 EVKLDETGGGLVQPGRPMKLSCVASGFTFSCYWPNWVRQSPEKGLEWVAQIRNKPYNYETYYSDSVKGRFTISRDDSKSSVYLQMNNLRVEDMGIYYCTGSYYGMDYWGQGTSVTVS chain 2 DVVMTQTPLSLPVSLGDQASISCRSSQSLVHSNGNTYLRWYLQKPGQSPKVLIYKVSNRFSGVPDRFSGSGSGTDFTLKISRVEAEDLGVYFCSQSTHVPWTFGGGTKLEIK [chain 1 D31C M34P], for which the dissociation constant (Kd) in the data set with fluorescein is ≥ 10 µM. Also, the yeast surface expression in data set [1] turned out to be 0.56.

With chain 1 EVKLDETGGGLVQPGRPMKLSCVASGFTFSEYWNNWVRQSPEKGLEWVAQIRNKPYNYETYYSDSVKGRFTISRDDSKSSVYLQMNNLRVEDMGIYYCTGSYYGMDYWGQGTSVTVS chain 2 DVVMTQTPLSLPVSLGDQASISCRSSQSLVHSNGNTYLRWYLQKPGQSPKVLIYKVSNRFSGVPDRFSGSGSGTDFTLKISRVEAEDLGVYFCSQSTHVPWTFGGGTKLEIK [chain 1 D31E M34N], the Kd with fluorescein was ≥ 10 µM. Moreover, the yeast surface expression in data set [1] worked out at 0.61.

For the variant chain 1 EVKLDETGGGLVQPGRPMKLSCVASGFTFSEYWPNWVRQSPEKGLEWVAQIRNKPYNYETYYSDSVKGRFTISRDDSKSSVYLQMNNLRVEDMGIYYCTGSYYGMDYWGQGTSVTVS chain 2 DVVMTQTPLSLPVSLGDQASISCRSSQSLVHSNGNTYLRWYLQKPGQSPKVLIYKVSNRFSGVPDRFSGSGSGTDFTLKISRVEAEDLGVYFCSQSTHVPWTFGGGTKLEIK [chain 1 D31E M34P], the Kd with fluorescein is ≥ 10 µM. Besides, the yeast surface expression in data set [1] turned out to be 0.406.

As to chain 1 EVKLDETGGGLVQPGRPMKLSCVASGFTFSEYWMNWVRQSPEKGLEWVAQIRNKPYNYETYYSDSVKGRFTISRDDSKSSVYLQMNNLRVEDMGIYYCTGSYYGMDYWGQGTSVTVS chain 2 DVVMTQTPLSLPVSLGDQASISCRSSQSLVHSNGNTYLRWYLQKPGQSPKVLIYKVSNRFSGVPDRFSGSGSGTDFTLKISRVEAEDLGVYFCSQSTHVPWTFGGGTKLEIK [chain 1 D31E], the Kd in the data set with fluorescein is 0.00278 µM. Further, the yeast surface expression in data set [1] is 0.925.

For chain 1 EVKLDETGGGLVQPGRPMKLSCVASGFTFSEYWMNWLRQSPEKGLEWVAQIRNKPYNYETYYSDSVKGRFTISRDDSKSSVYLQMNNLRVEDMGIYYCTGSYYGMDYWGQGTSVTVS chain 2 DVVMTQTPLSLPVSLGDQASISCRSSQSLVHSNGNTYLRWYLQKPGQSPKVLIYKVSNRFSGVPDRFSGSGSGTDFTLKISRVEAEDLGVYFCSQSTHVPWTFGGGTKLEIK [chain 1 D31E V37L], the Kd with fluorescein is ≥ 10 µM. For the same variant, the yeast surface expression in data set [1] turned out to be 0.735.

As to chain 1 EVKLDETGGGLVQPGRPMKLSCVASGFTFSCYWMNWKRQSPEKGLEWVAQIRNKPYNYETYYSDSVKGRFTISRDDSKSSVYLQMNNLRVEDMGIYYCTGSYYGMDYWGQGTSVTVS chain 2 DVVMTQTPLSLPVSLGDQASISCRSSQSLVHSNGNTYLRWYLQKPGQSPKVLIYKVSNRFSGVPDRFSGSGSGTDFTLKISRVEAEDLGVYFCSQSTHVPWTFGGGTKLEIK [chain 1 D31C V37K], the Kd in the data set with fluorescein was ≥ 10 µM. The yeast surface expression in data set [1] is 0.453.
